{"source": "patent US10004812B2", "about": "(priority 2014, dated 2018)", "molecules": {"B1": {"name": "OMTX505: recNgA immunoconjugate tested in vivo (conjugate)", "heavy": "QVQLVQSGAEVKKPGASVKVSCKASGYTFTENIIHWVRQAPGQGLEWMGWFHPGSGSIKYNEKFKDRVTMTADTSTSTVYMELSSLRSEDTAVYYCARHGGTGRGAMDYWGQGTLVTVSSASTKGPSVFPLAPSSKSTSGGTAALGCLVKDYFPEPVTVSWNSGALTSGVHTFPAVLQSSGLYSLSSVVTVPSSSLGTQTYICNVNHKPSNTKVDKKVEPKSCDKTHTCPPCPAPPVAGPSVFLFPPKPKDTLMISRTPEVTCVVVDVSHEDPEVKFNWYVDGVEVHNAKTKPREEQYNSTYRVVSVLTVLHQDWLNGKEYKCKVSNKGLPSSIEKTISKAKGQPREPQVYTLPPSRDELTKNQVSLTCLVKGFYPSDIAVEWESNGQPENNYKTTPPVLDSDGSFFLYSKLTVDKSRWQQGNVFSCSVMHEALHNHYTQKSLSLSPGK", "light": "DIQMTQSPSSLSASVGDRVTITCRASKSVSTSAYSYMHWYQQKPGKAPKLLIYLASNLESGVPSRFSGSGSGTDFTLTISSLQPEDFATYYCQHSRELPYTFGQGTKLEIKRTVAAPSVFIFPPSDEQLKSGTASVVCLLNNFYPREAKVQWKVDNALQSGNSQESVTEQDSKDSTYSLSSTLTLSKADYEKHKVYACEVTHQGLSSPVTKSFNRGEC", "chain": "MIDYPSVSFNLDGAKSATYRDFLSNLRKTVATGTYEVNGLPVLRRESEVQVKSRFVLVPLTNYNGNTVTLAVDVTNLYVVAFSGNANSYFFKDATEVQKSNLFVGTKQNTLSFTGNYDNLETAANTRRESIELGPSPLDGAITSLYHGDSVARSLLVVIQMVSEAARFRYIEQEVRRSLQQATSFTPNALMLSMENNWSSMSLEIQQAGNNVSPFFGTVQLLNYDHTHRLVDNFEELYKITGIAILLFRCSSPSND"}, "B2": {"name": "A5-IgG1: human anti-human Endoglin IgG1; heavy chain SEQ ID NO: 3, light chain SEQ ID NO: 4; ADCC/CDC deficient (antibody)", "heavy": "EVQLLESGGGLVQPGGSLRLSCAASGFTFSSYAMSWVRQAPGKGLEWVSAIYGSDGDTTYADSVKGRFTISRDNSKNTLYLQMNSLRAEDTAVYYCARVFYTAGFDYWGQGTLVTVSSASTKGPSVFPLAPSSKSTSGGTAALGCLVKDYFPEPVTVSWNSGALTSGVHTFPAVLQSSGLYSLSSVVTVPSSSLGTQTYICNVNHKPSNTKVDKKVEPKSCDKTHTCPPCPAPPVAGPSVFLFPPKPKDTLMISRTPEVTCVVVDVSHEDPEVKFNWYVDGVEVHNAKTKPREEQYNSTYRVVSVLTVLHQDWLNGKEYKCKVSNKGLPSSIEKTISKAKGQPREPQVYTLPPSRDELTKNQVSLTCLVKGFYPSDIAVEWESNGQPENNYKTTPPVLDSDGSFFLYSKLTVDKSRWQQGNVFSCSVMHEALHNHYTQKSLSLSPGK", "light": "DIELTQSPSSLSASVGDRVTITCRASQSISSSLNWYQQKPGKAPKLLIYAASSLQSGVPSRFSGSGSGTDFTLTISSLQPEDFATYYCQQAPAKPPTFGQGTKLEIKRTVAAPSVFIFPPSDEQLKSGTASVVCLLNNFYPREAKVQWKVDNALQSGNSQESVTEQDSKDSTYSLSSTLTLSKADYEKHKVYACEVTHQGLSSPVTKSFNRGEC", "modifications": "Synthetic sequence A5-IgG1-HC - without signal sequence; Synthetic sequence A5-IgG1-LC - without signal sequence"}}, "key": {"HT1080 cells [1]": {"tested_on": "HT1080 cells", "experiment": "Cell proliferation arrest on HT1080 cells (CPA; crystal violet)", "format": "cell-based", "method": "Microtubule inhibition activity and cytotoxic activity of each new derivative were evaluated through tubulin polymerization inhibition assay (TPI; Tubulin Polymerization assay kit; Cytoskeleton, Cat. #BKO11P), and cell proliferation arrest on HT1080 cells (CPA; crystal violet)."}, "[2]": {"conditions": "Table 3, published data; cited from earlier work"}, "[3]": {"tested_on": "rabbit reticulocyte cell-free lysates"}, "HT1080-FAP cell line": {"tested_on": "HT1080-FAP cell line", "format": "cell-based", "conditions": "crystal violet viability, FIG. 6, read-out: cytotoxic activity IC50"}, "[4]": {"tested_on": "PAXF-736 pancreas cancer xenograft", "experiment": "Anti-tumoral effect in patient-derived xenograft mouse model for pancreas cancer (PAXF-736)", "format": "in vivo", "method": "Both types of immunoconjugates, recNgA- and cytolysin-conjugates, were evaluated for their anti-tumoral effect in vivo in a patient-derived xenograft mouse model for pancreas cancer (PAXF-736), previously selected for antigen expression.\nImmunoconjugates were then administrated once a week intraperitoneally over 5 weeks. Tumor volume and body weight were measured every 2-3 days. Vehicle-treated and Gemcitabine-treated (150 mg/kg) PDX mice were used as negative and positive control groups, respectively."}, "recombinant human ENG": {"molecular_target": "T1, recombinant human ENG (Homo sapiens, UniProt P17813)", "T1 sequence (P17813 whole entry, looked up)": "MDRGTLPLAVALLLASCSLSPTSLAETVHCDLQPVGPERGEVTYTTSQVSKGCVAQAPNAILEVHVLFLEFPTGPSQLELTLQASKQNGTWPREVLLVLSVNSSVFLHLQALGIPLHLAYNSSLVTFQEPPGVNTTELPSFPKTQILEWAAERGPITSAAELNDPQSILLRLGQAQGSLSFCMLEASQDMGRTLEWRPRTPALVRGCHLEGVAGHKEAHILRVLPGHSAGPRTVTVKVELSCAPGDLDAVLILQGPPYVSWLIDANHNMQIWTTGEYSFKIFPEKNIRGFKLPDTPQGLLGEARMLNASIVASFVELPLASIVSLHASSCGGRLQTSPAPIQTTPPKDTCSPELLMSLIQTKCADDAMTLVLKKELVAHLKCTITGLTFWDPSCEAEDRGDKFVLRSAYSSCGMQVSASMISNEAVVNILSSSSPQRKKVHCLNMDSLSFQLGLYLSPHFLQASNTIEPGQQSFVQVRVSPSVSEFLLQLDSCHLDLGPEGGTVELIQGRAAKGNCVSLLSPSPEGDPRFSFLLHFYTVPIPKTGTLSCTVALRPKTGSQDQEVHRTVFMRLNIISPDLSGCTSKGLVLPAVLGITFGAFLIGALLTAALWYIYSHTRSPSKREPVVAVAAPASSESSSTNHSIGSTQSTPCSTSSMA", "experiment": "ELISA binding to immobilized recombinant human ENG", "conditions": "FIG. 3a", "protocol": "Bioactivity was analyzed by ELISA using recombinant ENG and detection of bound antibodies with HRP-conjugated anti-human IgG antibodies."}, "[5]": {"experiment": "Melting point by dynamic light scattering (zetasizer nano)", "format": "physicochemical", "conditions": "thermal stability", "method": "(§1) Purified proteins A5-IgG and mE12-IgG were characterized by SDS-PAGE and size exclusion chromatography. Bioactivity was analyzed by ELISA, using recombinant mouse/human ENG and detection of bound antibodies with HRP-conjugated anti-human IgG antibodies. Cell binding was analyzed by flow cytometry, using ENG-positive HT1080 and ENG expressing mouse eEnd2. Melting points were determined by dynamic light scattering using a zetasizer nano. Affinities were determined by QCM using an Attana A100. Internalization study was performed by indirect immunofluorescence confocal microscopy on permeabilized cells, detecting bound and internalized antibodies with a FITC-labeled secondary antibody."}, "HT1080 cells [6]": {"tested_on": "HT1080 cells", "experiment": "Internalization by indirect immunofluorescence confocal microscopy", "format": "cell-based, human", "method": "as §1\nPreliminary internalization studies indicate rapid cellular internalization for A5-IgG against cells expressing human ENG. Indeed within 30 min, almost 90% of the A5-IgG is found within HT1080 cells."}, "HT1080 cells [7]": {"tested_on": "HT1080 cells", "experiment": "Flow cytometry cell binding, ENG-positive HT1080 cells", "design": "species or system human", "conditions": "FIG. 3b", "method": "Purified anti-muENG mE12 and anti-huENG A5 antibodies were analyzed in ELISA for binding to recombinant ENG and using flow cytometry analysis (FACS).\nas §1"}}, "note": "Where two headings read alike, the source gives them in different places. *1 amine or outer side, *2 acyl side, *3 side chain or, on linkers, in order; H or OH if unused. Where a SMILES comes first, the peptide text is derived from it. [ ]: non-standard residue; d: D form. The star is where a group is joined. ξ: configuration not given here. NPrTuv(OPr) = CCCO[C@H](C[C@H](C(C)C)N(CCC)[*:1])c1nc(C(=O)[*:2])cs1; Dolaproine = CO[C@@H]([C@@H]1CCCN1)[C@@H](C)C(=O)O; Hexanoyl(6-maleimido) = O=C1C=CC(=O)N1CCCCCC(=O)*; X1 = COC(=O)[C@@H](C)C[C@H](Cc1ccc(O)cc1)N*; Dil = CC[C@H](C)[C@H](NC)[C@@H](CC(=O)O)OC; PABC = O=C(OCc1ccc(N[*:1])cc1)[*:2]; X2 = C[C@@H](N*)[C@@H](O)c1ccccc1; Cit = NC(=O)NCCC[C@H](N)C(=O)O; NMeV = CN[C@H](C(=O)O)C(C)C; ξIle = CC[C@H](C)C(N)C(=O)O; dPip = O=C(O)[C@H]1CCCCN1", "data": [{"molecule": "CCCO[C@H](C[C@H](C(C)C)N(CCC)C(=O)[C@@H](NC(=O)[C@H]1CCCCN1C)[C@@H](C)CC)c1nc(C(=O)N[C@@H](Cc2ccc(O)cc2)C[C@H](C)C(=O)NNC(=O)OCc2ccc(NC(=O)[C@@H](CCCNC(N)=O)NC(=O)[C@H](NC(=O)CCCCCN3C(=O)C=CC3=O)C(C)C)cc2)cs1", "note": "[TAM471, Maleimido-Val-Cit-PABOCO-Tubulysin/Cytolysin-TAM470]", "values": [{"measurement": "IC50", "setting": "HT1080 cells [1]; Homo sapiens, HT-1080", "result": "17 to 42", "unit": "nM"}]}, {"molecule": "Nigrin b: native (WT) Nigrin b, type 2 ribosome-inactivating protein with A and B chains", "values": [{"measurement": "Mouse LD50", "setting": "[2]", "result": "12,000.00 μgkg^−1"}, {"measurement": "IC50", "setting": "[3]", "result": "~0.0025", "unit": "nM"}, {"measurement": "IC50", "setting": "HT1080-FAP cell line", "result": "~20", "unit": "nM"}]}, {"molecule": "CCCO[C@H](C[C@H](C(C)C)N(CCC)C(=O)[C@@H](NC(=O)[C@H]1CCCCN1C)[C@@H](C)CC)c1nc(C(=O)N[C@@H](Cc2ccc(O)cc2)C[C@H](C)C(=O)NNC(=O)OCCOCCOCCOCCNC(=O)CCCCCN2C(=O)C=CC2=O)cs1", "note": "[TAM552]", "values": [{"measurement": "IC50", "setting": "HT1080 cells [1]; Homo sapiens, HT-1080", "result": 10, "unit": "nM"}]}, {"molecule": "CCCO[C@H](C[C@H](C(C)C)N(CCC)C(=O)[C@@H](NC(=O)C(C(C)C(=O)OCc1ccc(NC(=O)[C@H](CCCNC(N)=O)NC(=O)[C@@H](NC(=O)CCCCCN2C(=O)C=CC2=O)C(C)C)cc1)[C@@H](C)CC)[C@@H](C)CC)c1nc(C(=O)N[C@@H](Cc2ccccc2)C[C@H](C)C(=O)O)cs1", "note": "(stereo partly shown) [TAM551]", "values": [{"measurement": "IC50", "setting": "HT1080 cells [1]; Homo sapiens, HT-1080", "result": 90, "unit": "nM"}]}, {"molecule": "CC[C@H](C)[C@@H]([C@@H](CC(=O)N1CCC[C@H]1[C@H](OC)[C@@H](C)C(=O)N[C@H](C)[C@@H](O)c1ccccc1)OC)N(C)C(=O)[C@@H](NC(=O)[C@@H](NC)C(C)C)C(C)C", "note": "[MMAE, reference compound] (H-[NMeV]V[Dil][Dolaproine]-X2)", "values": [{"measurement": "IC50", "setting": "HT1080 cells [1]", "result": "0.1 to 0.6", "unit": "nM"}]}, {"molecule": "CC[C@H](C)[C@H](NC(=O)[C@H]1CCCCN1C)C(=O)N(COC(=O)CC(C)C)[C@H](C[C@@H](OC(C)=O)c1nc(C(=O)N[C@@H](Cc2ccc(O)cc2)C[C@H](C)C(=O)O)cs1)C(C)C", "note": "[Tubulysin A, reference compound]", "values": [{"measurement": "IC50", "setting": "HT1080 cells [1]", "result": "0.04 to 0.2", "unit": "nM"}]}, {"molecule": "CCCO[C@H](C[C@H](C(C)C)N(CCC)C(=O)C(NC(=O)[C@H]1CCCCN1C(=O)OCc1ccc(NC(=O)[C@H](CCCNC(N)=O)NC(=O)[C@@H](NC(=O)CCCCCN2C(=O)C=CC2=O)C(C)C)cc1)[C@@H](C)CC)c1nc(C(=O)N[C@@H](Cc2ccc(O)cc2)C[C@H](C)C(=O)OC)cs1", "note": "(stereo partly drawn) [TAM467, Maleimido-Val-Cit-PABOCO-Tubulysin/Cytolysin-TAM461] ({Hexanoyl(6-maleimido)}-V[Cit][PABC][dPip][ξIle][NPrTuv(OPr)]-X1)", "values": [{"measurement": "IC50", "setting": "HT1080 cells [1]; Homo sapiens, HT-1080", "result": "230 to 420", "unit": "nM"}]}, {"molecule": "B1", "values": [{"measurement": "in vivo anti-tumoral efficacy", "setting": "[4]; 0.5 mg/kg, once a week i.p. over 5 weeks, single agent", "result": 60, "unit": "%"}, {"measurement": "tumor growth inhibition", "setting": "[4]; combined with Gemcitabine, tumor regression", "result": 100, "unit": "%"}]}, {"molecule": "B2", "values": [{"measurement": "binding to human ENG by ELISA, in words", "setting": "recombinant human ENG", "result": "concentration-dependent binding"}, {"measurement": "Tm (DLS)", "setting": "[5]", "result": 72, "unit": "°C"}, {"measurement": "internalization (time)", "setting": "HT1080 cells [6]; HT1080", "result": "30 to 60", "unit": "min"}, {"measurement": "share of antibody found within cells", "setting": "HT1080 cells [6]; HT1080 cells, within 30 min, preliminary", "result": "~90", "unit": "%"}, {"measurement": "binding to human ENG by flow cytometry, in words", "setting": "HT1080 cells [7]", "result": "concentration-dependent binding"}]}]}
